Assay results taken from patent US9771395B2, “Enhanced influenza hemagglutinin binders” (UNIVERSITY OF WASHINGTON, priority 2014, dated 2017).
Converted amounts (≈) assume the structure as drawn.

Experiments:
[1] = test system: human (H1N1) and avian (H5N1) influenza viruses; assay: microbe, parasite or virus in culture; assay type: cell-based, Influenza virus
[2] = test system: H1N1 A/California/07/2009 (CA09) virus; assay: Pre-exposure administration and lethal influenza challenge in BALB/c mice; assay type: in vivo
Experimental: (§1) All animal experiments used in this study were approved by the University of Washington Institutional Animal Care and Use Committee. […] Two to forty-eight hours later, the mice were anesthetized by isoflurane and challenged intranasally with 10 MLD50 (fifty percent mouse lethal dose) of either A/California/07/09 (H1N1) (CA09) or A/PR/8/34 (H1N1) (PR8). In a therapeutic setting, mice received the protein binder 0 (2 hours post-infection), 1, 2, 3, or 4 days post infection. The mice were monitored daily for weight loss and survival until 14 days post-infection. Animals that lost more than 30% of their initial body weight were euthanized in accordance with our animal protocol. The SCID (NOD SCID gamma, strain NOD.Cg-Prkdcscid Il2rgtm1Wjl/SzJ) mice and the MyD88−/−(strain B6.129P2(SJL)-Myd88tm1.1Defr/J) mice were purchased from Jackson Laboratory.

CA09 virus [3] = assay: Pre-exposure administration and CA09 challenge in SCID mice; assay type: in vivo, NOD SCID gamma (SCID) mice; conditions: 6.0 mg/kg IN 2 hrs before CA09
Experimental: as §1

CA09 virus [4] = assay: Pre-exposure administration and CA09 challenge in MyD88-/- mice; assay type: in vivo; conditions: 6.0 mg/kg IN 2 hrs before CA09
Experimental: as §1

CA09 virus [5] = assay: Post-exposure (therapeutic) administration after CA09 challenge in BALB/c mice; assay type: in vivo; conditions: for protection from lethality: 10 MLD50 CA09
Experimental: as §1, with “Two to forty-eight hours later, the mice were anesthetized by isoflurane and challenged intranasally with 10 MLD50 (fifty percent mouse lethal dose) of either A/California/07/09 (H1N1) (CA09) or A/PR/8/34 (H1N1) (PR8).” left out

[6] = ELISA for serum binding antibodies against HB36.6 after repeat dosing; assay type: in vivo, mice; conditions: 3.0 mg/kg IN doses two weeks apart
Experimental: Plates were blocked with 5% nonfat milk powder in PBS for 1 h at room temperature, and then washed three times with wash buffer (PBS-T; phosphate-buffered saline containing 0.05% Tween 20). Two-fold serial dilutions of samples were added to the wells and plates were incubated for 1 hr at room temperature. Following three washes with PBS-T, plates were incubated with horseradish-peroxidase conjugated goat anti-mouse IgG (1/3,000 dilution) secondary antibodies (Thermo Scientific Pierce) for 1 h at room temperature. After five washes with PBS-T, TMB substrate (KPL) was added to the wells for 30 min at room temperature.

CA09 virus [7] = assay: Lung immunohistochemistry for influenza nucleoprotein (NP) after CA09 challenge; assay type: in vivo, BALB/c mice
Experimental: During in vivo challenge experiments, lungs were removed from mice and immersed in 10% neutral buffered formalin. Following fixation, tissues were removed from formalin and placed in paraffin. Immunohistochemical staining was performed on the Leica Bond Automated Immunostainer. Sections were deparaffinized in Leica Bond Dewax Solution (Leica Cat No. AR922) and rehydrated through 100% EtOH. After antigen retrieval with EDTA buffer pH 9.0 (Lieca Bond Epitope Retrieval Solution 2, Cat No AR9640) at 100° C. for 20 minutes and blocking endogenous peroxidase activity with 3.0% H2O2 for 5 minutes and blocking with 10% Normal Donkey Serum in TBS for 20 minutes the sections were incubated with Goat anti Influenza A Virus, (Meridian Life Science Inc. Cat No. B65141G) at 1:2000 or Normal Goat IgG, isotype control. (Invitrogen Cat No. 02-6202) at (1:5000 dilution) both in Bond Primary Antibody Diluent (Leica Cat No. AR9352) for 30 minutes at room temperature. Sections were then incubated with Rabbit anti Goat IgG (Jackson ImmunoResearch Cat. No. 305-005-045) 1:1500+5% Normal Donkey Serum for 8 minutes at RT followed by incubation with Goat anti Rabbit Poly-HRP polymer secondary detection (Leica Cat No DS9800) for 8 minutes at room temperature. Sections were then incubated with Leica Bond Mixed Refine DAB substrate detection for 10 minutes at room temperature. (Leica Cat No DS9800). […]

[8] = test system: A/California/07/2009 (CA09) influenza virus; parameters: species or system ferrets; conditions: in vivo
H5 HA = assay type: binding, Influenza virus
H2 HA = assay type: binding, Influenza virus
CA09 virus [9] = assay: Bio-Plex inflammatory cytokines in lung homogenates after CA09 challenge; assay type: in vivo, BALB/c mice; conditions: 6.0 mg/kg IN 24 hrs before or after CA09; day 2 p.i.; P≦0.00119
Experimental: (§2) The concentrations of cytokines in lung tissue were measured. On days 2 and 4 post-infection, 8 mice per group were sacrificed and whole lung tissue was collected and immediately frozen. Lungs were thawed, weighed and lysed using the Bio-Plex® Cell Lysis Kit (Bio-Rad, Hercules, Calif.). The levels of interleukin (IL)-6, IL-10. IL-12(p70), interferon (IFN)-γ, and tumor necrosis factor (TNF)-α in the lysate were measured using a Bio-Plex) multiplex bead array kit (Bio-Rad, Hercules, Calif.). The Bio-Plex® assay was performed in accordance with the manufacturer's instructions.

CA09 virus [10] = test system: CA09 virus; parameters: species or system BALB/c mice; conditions: mouse, in vivo
[11] = molecular target: Hemagglutinin (HA) of pandemic 2009 California H1N1 (Influenza A virus, UniProt C3W5S1)
[12] = Bio-Plex inflammatory cytokines in lung homogenates after protein administration (no infection); assay type: in vivo, BALB/c mice; conditions: single IN dose 6.0 mg/kg
Experimental: as §2, with “On days 2 and 4 post-infection, 8 mice per group were sacrificed and whole lung tissue was collected and immediately frozen.” left out

[13] = mouse, in vivo
[14] = test system: Group I Hemagglutinin (HA) subtypes; assay type: binding, Influenza virus
[15] = 0.01 mg/kg IN two hours prior to lethal CA09 challenge
[16] = 0.1 mg/kg IN two hours prior to lethal CA09 challenge
[17] = 1.0 mg/kg IN two hours prior to lethal CA09 challenge

In the case of `NC(=O)c1ncn([C@@H]2O[C@H](CO)[C@@H](O)[C@H]2O)n1` [Ribavirin, 1- -D-ribofuranosyl-1,2,4-triazole-3-carboxamide, reference compound], the EC50 ([1]; Influenza A virus, MDCK, read-out: EC50 range) is reported as 15 to 18 µg/mL (≈ 61.4 to 73.7 µM).

For lysozyme [reference compound], the protection ([2]; 6.0 mg/kg, 48 or 2 hrs before CA09 challenge) was “no protection”, the “survival (protected mice)” value (CA09 virus [3]) was 0% and the weight loss (CA09 virus [3]) was “significant weight loss”. The “survival (protected mice)” value (CA09 virus [4]) was 0% and the weight loss (CA09 virus [4]) was “significant weight loss”.

In the case of `CCOC(=O)C1=C[C@@H](OC(CC)CC)[C@H](NC(C)=O)[C@@H](N)C1` [oseltamivir, reference compound], the survival (CA09 virus [5]; 5 mg/kg/day by oral gavage, twice daily for 5 days starting day +1 p.i., 3 MLD50 CA09) is reported as 0% and the “delay of time to death compared to controls” value (CA09 virus [5]; 5 mg/kg/day by oral gavage, twice daily for 5 days starting day +1 p.i., p<0.001) is reported as “about 2.5 days”.

B1: HB36.6: HA stem binding protein, variant of HB36.5 with nine substitutions (SEQ ID NO: 3); FLAG-tagged in the studies (protein)
chain: SNAMDGQQLNRLLLENIGAWDPFGLGKDAYTYQAAEVLKAVYETNRAFDLAMRIHWIYNFAFKRRIPFARTQKLARRLLELKQAASSPLP
modifications: FLAG tag; (1)..(5) optionally absent; (86)..(90) optionally absent
notes: FLAG-tagged in the studies
In the case of B1, the “mice recovered and survived” value [2, 15] is reported as 20%, the “survived longer than controls” value [2, 15] is reported as 2 to 3 days and the weight loss [2, 15] is reported as “exhibited weight loss”. The survival [2, 16] was 100%, the weight loss [2, 16] was “little” and the survival [2, 17] was 100%. The weight loss [2, 17] was “no”, the “protection from mortality and morbidity” value ([2]; lethal CA09 challenge 24 hours after the 4th dose (3.0 mg/kg IN), data not shown) was 100% and the protection ([2]; same dose (6.0 mg/kg) delivered intravenously (IV), data not shown) was “no protection”. For the same molecule, the survival ([2]; single IN dose 6.0 mg/kg at 2, 24 or 48 hours before 10 MLD50 CA09) was 100%, the weight loss ([2]; single IN dose 6.0 mg/kg up to 48 hours before 10 MLD50 CA09) was “moderate to low” and the “serum binding antibodies against HB36.6” value ([6]; after the 1st and 2nd dose) was “No antibodies against HB36.6 were detected”. For the same molecule, the “animals with low levels of antibody responses” value ([6]; by 3rd dose) was 4 of the 10, the “survival (protected mice)” value (CA09 virus [3]) was 100% and the weight loss (CA09 virus [3]) was “minimal weight loss”. The “viral replication in the lungs vs untreated controls” value (CA09 virus [7]; 6.0 mg/kg IN 1 day before or post-infection, day 2 and day 4 p.i.) was “significantly less viral replication”, the “NP positive (infected) cells in lung tissue vs controls” value (CA09 virus [7]; 6.0 mg/kg IN as therapeutic, day 4, P≦0.0263) was “significantly lower number of infected cells” and the “protection against influenza challenge in ferrets” value [8] was “affords prophylactic protection”. It also gave a protection from lethality (CA09 virus [5]; 3.0 mg/kg IN daily for 4 days (days +1-4 p.i.)) of 100%, a protection from lethality (CA09 virus [5]; single IN dose 3.0 mg/kg 2 hours p.i.) of 100% and a protection from lethality (CA09 virus [5]; single IN dose 3.0 mg/kg +1 day p.i.) of 60%. For the same molecule, the rate of survival (CA09 virus [5]; single IN dose 10 mg/kg on day +1 p.i., 3 MLD50 CA09) was 70%, the “effect of a single dose on survivors” value (CA09 virus [5]; single IN dose 1.0-10 mg/kg on day +1 p.i., CA09, dose-responsive) was “increase in the number of survivors” and the “affinity increase over HB36.5” value (H5 HA) was greater than 10 fold. For the same molecule, the “affinity increase over HB36.5” value (H2 HA) was “greater than 40 fold”, the “inflammatory cytokine response in lung (IL-6, IL-10, IL-12p70, TNF-α, IFN-γ)” value (CA09 virus [9]) was “several cytokines were significantly lower than in the controls” and the “reduction in mean viral titers in nasal washes vs untreated controls” value (CA09 virus [10]) was 1-3 log-fold. The “Kd stronger than HB36.5” value [11] was “roughly 6 fold”, the “Kd tighter than any known de novo binder” value [11] was 5 fold and the Kd ([11]; read-out: Kd against pandemic 2009 California H1N1) was 3.1 nM. The “50% effective concentration (EC50) range” value [1] was 0.18 to 12.0 µg/mL, the “cytokine levels by 48 hrs” value [12] was “dropped to pre-administration levels” and the “cytokine levels compared with 1u84” value [12] was “significantly lower than levels induced by 1u84”. For the same molecule, the “detection of protein in lung tissue” value [13] was “readily detected throughout the lung tissue”, the “affinity compared with HB36.5” value [14] was “higher affinity than HB36.5” and the “cross-reactivity against Group I HA subtypes” value [14] was “broadly cross-reactive”. The “off-rates (dissociation)” value [14] was “did not show well-defined off-rates”, the “survival (protected mice)” value (CA09 virus [4]) was 90% and the weight loss (CA09 virus [4]) was “minimal weight loss”.

B2: 1u84: scaffold protein (PDB ID 1u84) that HB36.6 is modeled on; non-protective control (protein)
chain: SNAMDGQQLNRLLLEWIGAWDPFGLGKDAYDVEAASVLQAVYETEDARTLAARIQSIYEFAFDEPIPFPHCLKLARRLLELKQAASCPLP
In the case of B2, the “survival (protected mice)” value (CA09 virus [3]) is reported as 0%, the weight loss (CA09 virus [3]) is reported as “significant weight loss” and the protection (CA09 virus [5]; daily administration after CA09 challenge) is reported as “no protection”. For the same molecule, the “cytokine levels by 48 hrs” value [12] was “dropped to pre-administration levels”, the “survival (protected mice)” value (CA09 virus [4]) was 0% and the weight loss (CA09 virus [4]) was “significant weight loss”.

B3: HB36.5: stable, broadly cross-reactive HA binding protein (SEQ ID NO: 4), parent of HB36.6 (protein)
chain: SNAMDGQQLNRLLLEWIGAWDPFGLGKDAYDYEAAEVLKAVYETESAFDLAMRIHWIYNFAFKRQIPFAHAQKLARRLLELKQAASSPLP
modifications: (1)..(5) optionally absent; (86)..(90) optionally absent
For B3, the “cross-reactivity against Group I HA subtypes” value [14] was “broadly cross-reactive”.
